Numbering of substitutions follows the chain as printed.
B1: TR01H043-E22Hh/none-Hi-Kn010G3/L0000-k0 (antibody, human IgG1, kappa, L234A L235A, N297A)
heavy: QVQLVESGGGLVQPGRSLRLSCSASGFTFSNAWMHWVRQAPGKGLEWVAQIKDKSNNYATYYAESVKGRFTISRADSKNSIYLQMNSLKTEDTAVYYCRYVHYSASYGVDIWGQGTTVTVSSASTKGPSVFPLAPSSKSTSGGTAALGCLVKDYFPEPVTVSWNSGALTSGVHTFPAVLQSSGLYSLSSVVTVPSSSLGTQTYICNVNHKPSNTKVDKKVEPKSCDKTHTCPPCPAPEAAGGPSVFLFPPKPKDTLMISRTPEVTCVVVDVSHEDPEVKFNWYVDGVEVHNAKTKPREEQYASTYRVVSVLTVLHQDWLNGKEYKCKVSNKALPAPIEKTISKAKGQPREPQVYTLPPSRCELTKNQVSLSCAVKGFYPSDIAVEWESNGQPENNYKTTPPVLDSDGSFFLVSKLTVDKSRWQQGNVFSCSVMHEALHNHYTQKSLSLSPDYKDDDDK
chain: EPKSSDKTHTCPPCPAPELLGGPSVFLFPPKPKDTLMISRTPEVTCVVVDVSHEDPEVKFNWYVDGVEVHNAKTKPREEQYNSTYRVVSVLTVLHQDWLNGKEYKCKVSNKALPAPIEKTISKAKGQPREPQVCTLPPSRDELTKNQVSLWCLVKGFYPSDIAVEWESNGQPENNYKTTPPVLDSDGSFFLYSKLTVDKSRWQQGNVFSCSVMHEALHNRYTQKSLSLSP
light: DIVMTQSPLSLPVTPGEPASISCRSSQSLVHSNRNTYLHWYQQKPGQAPRLLIYKVSNRFSGVPDRFSGSGSGTDFTLKISRVEAEDVGVYYCGQGTQVPYTFGQGTKLEIKRTVAAPSVFIFPPSDEQLKSGTASVVCLLNNFYPREAKVQWKVDNALQSGNSQESVTEQDSKDSTYSLSSTLTLSKADYEKHKVYACEVTHQGLSSPVTKSFNRGEC
notes: single-arm
B2: TR01H046-E22Hh/none-Hi-Kn010G3/L0000-k0 (antibody, human IgG1, kappa, L234A L235A, N297A)
heavy: B1 heavy with N56Q, I111Y
chain: B1 chain
light: B1 light
notes: single-arm
B3: TR01H072-E22Hh/none-Hi-Kn010G3/L0000-k0 (antibody, human IgG1, kappa, L234A L235A, N297A)
heavy: B1 heavy with S23A, N56Q, S104A
chain: B1 chain
light: B1 light
notes: single-arm
B4: TR01H071-E22Hh/none-Hi-Kn010G3/L0215-k0 (antibody, human IgG1, kappa, L234A L235A, N297A)
heavy: B1 heavy with S23A, S104A
chain: B1 chain
light: B1 light with S28P, L29P, L38I
notes: single-arm
B5: TR01H067-E22Hh/none-Hi-Kn010G3/L0262-k0 (antibody, human IgG1, kappa, L234A L235A, N297A)
heavy: B1 heavy with S23A, N56Q, A75D, I81L, S104A, I111A
chain: B1 chain
light: B1 light with S28P, L29P, G94A
notes: single-arm
B6: TR01H071-E22Hh/none-Hi-Kn010G3/L0200-k0 (antibody, human IgG1, kappa, L234A L235A, N297A)
heavy: B1 heavy with S23A, S104A
chain: B1 chain
light: B1 light with S25P, L29P
notes: single-arm
B7: TR01H071-E22Hh/none-Hi-Kn010G3/L0000-k0 (antibody, human IgG1, kappa, L234A L235A, N297A)
heavy: B1 heavy with S23A, S104A
chain: B1 chain
light: B1 light
notes: single-arm
B8: TR01H062-E22Hh/none-Hi-Kn010G3/L0000-k0 (antibody, human IgG1, kappa, L234A L235A, N297A)
heavy: B1 heavy with S23A, N56Q, S104A, I111A
chain: B1 chain
light: B1 light
notes: single-arm
B9: TR01H052-E22Hh/none-Hi-Kn010G3/L0000-k0 (antibody, human IgG1, kappa, L234A L235A, N297A)
heavy: B1 heavy with S23A, N56Q, I81L
chain: B1 chain
light: B1 light
notes: single-arm
B10: TR01H067-E22Hh/none-Hi-Kn010G3/TR01L016-k0 (antibody, human IgG1, kappa, L234A L235A, N297A)
heavy: B1 heavy with S23A, N56Q, A75D, I81L, S104A, I111A
chain: B1 chain
light: B1 light with L29P, Q42L, A48S, R50Q, G94Y
notes: single-arm
B11: TR01H061-E22Hh/none-Hi-Kn010G3/L0000-k0 (antibody, human IgG1, kappa, L234A L235A, N297A)
heavy: B1 heavy with S23A, N56Q, S104A
chain: B1 chain
light: B1 light
notes: single-arm
B12: TR01H050-E22Hh/none-Hi-Kn010G3/L0000-k0 (antibody, human IgG1, kappa, L234A L235A, N297A)
heavy: B1 heavy with S23A, N56Q, A75D, I111Y
chain: B1 chain
light: B1 light
notes: single-arm
B13: TR01H061-E22Hh/none-Hi-Kn010G3/L0226-k0 (antibody, human IgG1, kappa, L234A L235A, N297A)
heavy: B1 heavy with S23A, N56Q, S104A
chain: B1 chain
light: B1 light with L29P, L38I, G94I
notes: single-arm
B14: TR01H067-E22Hh/none-Hi-Kn010G3/TR01L019-k0 (antibody, human IgG1, kappa, L234A L235A, N297A)
heavy: B1 heavy with S23A, N56Q, A75D, I81L, S104A, I111A
chain: B1 chain
light: B1 light with R24Q, S25A, Q27E, L29P, Q42L, A48S, R50Q, G94Y
notes: single-arm
B15: TR01H063-E22Hh/none-Hi-Kn010G3/L0000-k0 (antibody, human IgG1, kappa, L234A L235A, N297A)
heavy: B1 heavy with L11V, R16G, S23A, N56Q, S104A, I111A
chain: B1 chain
light: B1 light
notes: single-arm
B16: TR01H067-E22Hh/none-Hi-Kn010G3/L0212-k0 (antibody, human IgG1, kappa, L234A L235A, N297A)
heavy: B1 heavy with S23A, N56Q, A75D, I81L, S104A, I111A
chain: B1 chain
light: B1 light with S25P, L29P, G94Y
notes: single-arm
B17: TR01H067-E22Hh/none-Hi-Kn010G3/L0200-k0 (antibody, human IgG1, kappa, L234A L235A, N297A)
heavy: B1 heavy with S23A, N56Q, A75D, I81L, S104A, I111A
chain: B1 chain
light: B1 light with S25P, L29P
notes: single-arm
B18: TR01H047-E22Hh/none-Hi-Kn010G3/L0000-k0 (antibody, human IgG1, kappa, L234A L235A, N297A)
heavy: B1 heavy with S23A, A75D
chain: B1 chain
light: B1 light
notes: single-arm
B19: TR01H069-E22Hh/none-Hi-Kn010G3/L0000-k0 (antibody, human IgG1, kappa, L234A L235A, N297A)
heavy: B1 heavy with L11V, R16G, S23A, N56Q, A75D, I81L, S104A
chain: B1 chain
light: B1 light
notes: single-arm
B20: TR01H071-E22Hh/none-Hi-Kn010G3/L0226-k0 (antibody, human IgG1, kappa, L234A L235A, N297A)
heavy: B1 heavy with S23A, S104A
chain: B1 chain
light: B1 light with L29P, L38I, G94I
notes: single-arm
B21: TR01H049-E22Hh/none-Hi-Kn010G3/L0000-k0 (antibody, human IgG1, kappa, L234A L235A, N297A)
heavy: B1 heavy with S23A, N56Q, A75D, I111A
chain: B1 chain
light: B1 light
notes: single-arm
B22: TR01H073-E22Hh/none-Hi-Kn010G3/L0000-k0 (antibody, human IgG1, kappa, L234A L235A, N297A)
heavy: B1 heavy with S23A, N56Q, A75D, I81L, S104A
chain: B1 chain
light: B1 light
notes: single-arm
B23: TR01H064-E22Hh/none-Hi-Kn010G3/L0000-k0 (antibody, human IgG1, kappa, L234A L235A, N297A)
heavy: B1 heavy with N56Q, S104A, I111A
chain: B1 chain
light: B1 light
notes: single-arm
B24: TR01H055-E22Hh/none-Hi-Kn010G3/L0000-k0 (antibody, human IgG1, kappa, L234A L235A, N297A)
heavy: B1 heavy with S23A, A75D, I81L
chain: B1 chain
light: B1 light
notes: single-arm
B25: TR01H061-E22Hh/none-Hi-Kn010G3/L0222-k0 (antibody, human IgG1, kappa, L234A L235A, N297A)
heavy: B1 heavy with S23A, N56Q, S104A
chain: B1 chain
light: B1 light with L29P, L38I, H39Q, G94Y
notes: single-arm
B26: TR01H044-E22Hh/none-Hi-Kn010G3/L0000-k0 (antibody, human IgG1, kappa, L234A L235A, N297A)
heavy: B1 heavy with N56Q
chain: B1 chain
light: B1 light
notes: single-arm
B27: TR01H067-E22Hh/none-Hi-Kn010G3/L0201-k0 (antibody, human IgG1, kappa, L234A L235A, N297A)
heavy: B1 heavy with S23A, N56Q, A75D, I81L, S104A, I111A
chain: B1 chain
light: B1 light with S28P, L29P
notes: single-arm
B28: TR01H051-E22Hh/none-Hi-Kn010G3/L0000-k0 (antibody, human IgG1, kappa, L234A L235A, N297A)
heavy: B1 heavy with S23A, I81L
chain: B1 chain
light: B1 light
notes: single-arm
B29: TR01H048-E22Hh/none-Hi-Kn010G3/L0000-k0 (antibody, human IgG1, kappa, L234A L235A, N297A)
heavy: B1 heavy with S23A, N56Q, A75D
chain: B1 chain
light: B1 light
notes: single-arm
B30: TR01H071-E22Hh/none-Hi-Kn010G3/L0222-k0 (antibody, human IgG1, kappa, L234A L235A, N297A)
heavy: B1 heavy with S23A, S104A
chain: B1 chain
light: B1 light with L29P, L38I, H39Q, G94Y
notes: single-arm
B31: TR01H067-E22Hh/none-Hi-Kn010G3/L0203-k0 (antibody, human IgG1, kappa, L234A L235A, N297A)
heavy: B1 heavy with S23A, N56Q, A75D, I81L, S104A, I111A
chain: B1 chain
light: B1 light with L29P, L38I
notes: single-arm
B32: TR01H061-E22Hh/none-Hi-Kn010G3/L0215-k0 (antibody, human IgG1, kappa, L234A L235A, N297A)
heavy: B1 heavy with S23A, N56Q, S104A
chain: B1 chain
light: B1 light with S28P, L29P, L38I
notes: single-arm
B33: TR01H061-E22Hh/none-Hi-Kn010G3/L0200-k0 (antibody, human IgG1, kappa, L234A L235A, N297A)
heavy: B1 heavy with S23A, N56Q, S104A
chain: B1 chain
light: B1 light with S25P, L29P
notes: single-arm
B34: TR01H065-E22Hh/none-Hi-Kn010G3/L0000-k0 (antibody, human IgG1, kappa, L234A L235A, N297A)
heavy: B1 heavy with S23A, N56Q, A75D, S104A, I111A
chain: B1 chain
light: B1 light
notes: single-arm
B35: TR01H066-E22Hh/none-Hi-Kn010G3/L0000-k0 (antibody, human IgG1, kappa, L234A L235A, N297A)
heavy: B1 heavy with S23A, N56Q, I81L, S104A, I111A
chain: B1 chain
light: B1 light
notes: single-arm
B36: TR01H045-E22Hh/none-Hi-Kn010G3/L0000-k0 (antibody, human IgG1, kappa, L234A L235A, N297A)
heavy: B1 heavy with N56Q, I111A
chain: B1 chain
light: B1 light
notes: single-arm

Molecular target: T1, soluble human CD3ε chain (human, UniProt P07766 23-126, limits assumed)
T1 construct: the text says soluble human CD3ε chain; also called human CD3 epsilon chain
T1 sequence (P07766 23-126 limits assumed): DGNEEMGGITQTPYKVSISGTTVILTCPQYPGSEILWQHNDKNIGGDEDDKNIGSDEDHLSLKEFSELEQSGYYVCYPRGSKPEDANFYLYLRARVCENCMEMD
Experiment: SPR (Biacore)

| Binder | Kd [nM] |
| --- | --- |
| B1 | 15.2 |
| B2 | 42.3 |
| B3 | 20.3 |
| B4 | 9.51 |
| B5 | 49.2 |
| B6 | 6.13 |
| B7 | 8.85 |
| B8 | 31.3 |
| B9 | 62.7 |
| B10 | 10.9 |
| B11 | 17.1 |
| B12 | 57.6 |
| B13 | 47.1 |
| B14 | 12.1 |
| B15 | 43.5 |
| B16 | 5.88 |
| B17 | 60.3 |
| B18 | 20.4 |

| Binder | Kd [nM] |
| --- | --- |
| B19 | 71.1 |
| B20 | 25.1 |
| B21 | 67.9 |
| B22 | 59.7 |
| B23 | 30.7 |
| B24 | 38.8 |
| B25 | 18.8 |
| B26 | 35.2 |
| B27 | 59.3 |
| B28 | 29.1 |
| B29 | 45.2 |
| B30 | 10.4 |
| B31 | 47.9 |
| B32 | 15.4 |
| B33 | 12.7 |
| B34 | 43.1 |
| B35 | 60.2 |
| B36 | 52.2 |
